Results taken from US20240377400A1, “METHODS FOR TREATING A SUBTYPE OF COLORECTAL CANCER” (Cornell University, priority 2021, published 2024).

Key:
[1] = test system: Prkci^f/fPrkcz^f/f; Villin-Cre tumors; test: Endogenous Prkci^f/fPrkcz^f/f; Villin-Cre tumors treated with PEGPH20: histology, tumor burden, Quant-seq; type: in vivo, mouse
Description: FIGS. 9E-9O illustrate Prkci^f/fPrkcz^f/f; Villin-Cre mice (mOle and female, 11-week-old) treated with Veh (n=10) or PEGPH20 (n=12), 0.0375 mg/kg for 3 weeks. Experimental design (E); IHC HA, Masson's trichrome, and αSMA(F); staining quantification (n=5) (G); macroscopic images of tumors (H); total tumor number, tumor size, and tumor load (I); quantification of cancer incidence (J); and sessile serrated lesions (SSL) and carcinoma quantification of tumors (K). Scale bars, 50 μm (F), 10 mm (H). The red arrow denotes tumors>5 mm (H). (L-N) GSEA of transcriptomic data from Quant-seq on PEGPH20-treated tumors versus Veh (n=3) using compilation H (MSigDB) (L), stroma-related signatures (M) and serrated-related signatures (N). (O) GSEA plots of the indicated gene signatures for PEGPH20-treated tumors versus Veh (n=3). Results are shown as mean±SEM *p<0.05, **p<0.01, ***p<0.001, ****p<0.0001. See also FIG. 16.
Animal handling and experimental procedures conformed to institutional guidelines and were approved by the Sanford-Burnham-Prebys Medical Discovery Institute Institutional Animal Care and Use Committee, and by the Weill Cornell Medicine Institutional Animal Care and Use Committee. Prkci^f/fPrkcz^f/f, Villin-Cre, Prkci^f/fPrkcz^f/f; Villin-Cre and Villin-CreERT2 mice were previously described (el Marjou et al., 2004; Madison et al., 2002; Nakanishi et al., 2018) Prkci^f/fPrkcz^f/f; Villin-CreERT2 mice were generated by breeding Prkci^f/fPrkcz^f/f mice with Villin-CreERT2 (Jackson Laboratory, stock number 020282) mice. All mouse strains were generated in a C57BL/6 background and were born and maintained under pathogen-free conditions. For PEGPH20 treatment, 11-week-old Prkci^f/fPrkcz^f/f; Villin-Cre were retro-orbitally injected twice a week for 3 weeks with a dose of 0.0375 mg/kg of PEGPH20 (Halozyme Therapeutics), until they were sacrificed. Control mice were treated with vehicle. For xenograft experiments, 6-7 week-old male C57BL/6 were purchased from Charles River Labs (Wilmington, MA, USA). All mice were maintained on food and water ad libitum and were age-matched and co-housed for all experiments. Mice were sacrificed and small intestine, colon, tumors or other organs were collected for analysis. All genotyping was done by PCR. Age- and sex-matched mice were used for all experiments
Tissues from indicated mice were isolated, rinsed in ice-cold PBS, fixed in 10% neutral buffered formalin overnight at 4° C., dehydrated, and embedded in paraffin. Sections (5 μm) were stained with hematoxylin and eosin (H&E). For immunohistochemistry, sections were deparaffinized, rehydrated, and then treated for antigen retrieval. After blocking in Protein Block Serum-Free solutions (DAKO), tissues were incubated with primary antibody overnight at 4° C. followed by incubation with biotinylated secondary antibody. Endogenous peroxidase was quenched in 3% H2O2 in water for 10 minutes at room temperature. Antibodies were visualized with avidin-biotin complex (Vectastain Elite; Vector Laboratories) using diaminobenzidine as the chromogen. Stained sections were analyzed with a Zeiss light microscope supplemented with Zen 3.3 Bule edition software. For immunofluorescence, the signal was visualized using the OPAL™ 4-Color Manual IHC Kit (Akoya Biosciences, MA), which allows simultaneous detection of multiple targets in the same image. Fluorophores Opal 520, Opal 570, and TSA Plus Cyanine 5 were used, and the sections were counterstained with Spectral DAPI.
Total RNA was extracted using Quick-RNA MiniPrep kit (Zymo Research). Libraries were prepared from 200 ng of total RNA using the QuantSeq 3′ mRNA-Seq Library Prep Kit FWD for Illumina from Lexogen, and optional UMIs (Vienna, Austria). Barcoded libraries were pooled, and single end sequenced (1×75) on the Illumina NextSeq 500 using the High output V2.5 kit (Illumina Inc., San Diego CA).
For 3′RNA-Seq, read data was processed with the BlueBee Genomics Platform (BlueBee, San Mateo, CA). […]

[2] = test system: MTO-sgPrkci/sgPrkcz; test: PEGPH20 treatment in vitro of mouse tumor organoids, qPCR; type: cell-based; conditions: PEGPH20 2.5 μg/ml every other day for 6 days
Source text: To perform PRKCI and PRKCZ editing in PDOs, single-guide RNA sequences targeting PRKCI and PRKCZ (Table 3), were purchased from Synthego and transduced into PDOs with recombinant Streptococcus pyogenes Cas9 protein (Truecut Cas9 Protein v2, Thermo. To knock out Prkcz in mouse sgPrcki MTOs (Linares et al., 2021), single-guide RNA sequence targeting Prkcz (Table 3) was purchased from Synthego and transduced into sgPrcki MTOs as described above. PRKCI, PRKCZ, and Prkcz were knocked out using the Neon Transfection System 1 (Invitrogen) following the manufacturer's protocol and single clones were expanded and screened by protein immunoblotting. For the deletion of Prkci and Prkcz in normal organoids, 500 nM 4-OH-tamoxifen was added the second day after organoids were passaged. […]
Total RNA from cultured organoids was extracted using TRIZOL reagent (Invitrogen) and purified by the RNeasy Mini Kit (QIAGEN), followed by DNase treatment. After quantification using a Nanodrop 1000 spectrophotometer (Thermo Scientific), RNA was either processed for RNA-seq or reverse-transcribed using random primers and MultiScribe Reverse Transcriptase (Applied Biosystems). Gene expression was analyzed by amplifying 500 ng of the complementary DNA using the CFX96 Real Time PCR Detection System with SYBR Green Master Mix (BioRad) and primers described in Table 2. […]

[3] = small intestine, PEGPH20 0.0375 mg/kg, 3 weeks

B1: PEGPH20: a PEGylated version of human recombinant PH20 hyaluronidase; clinical-grade pegylated hyaluronidase (Halozyme Therapeutics) (protein, UniProt P38567 36-490, looked up)
Hyaluronidase PH-20: LNFRAPPVIPNVPFLWAWNAPSEFCLGKFDEPLDMSLFSFIGSPRINATGQGVTIFYVDRLGYYPYIDSITGVTVNGGIPQKISLQDHLDKAKKDITFYMPVDNLGMAVIDWEEWRPTWARNWKPKDVYKNRSIELVQQQNVQLSLTEATEKAKQEFEKAGKDFLVETIKLGKLLRPNHLWGYYLFPDCYNHHYKKPGYNGSCFNVEIKRNDDLSWLWNESTALYPSIYLNTQQSPVAATLYVRNRVREAIRVSKIPDAKSPLPVFAYTRIVFTDQVLKFLSQDELVYTFGETVALGASGIVIWGTLSIMRSMKSCLLLDNYMETILNPYIINVTLAAKMCSQVLCQEQGVCIRKNWNSSDYLHLNPDNFAIQLEKGGKFTVRGKPTLEDLEQFSEKFYCSCYSTLSCKEKADVKDTDAVDVCIADGVCIDAFLKPPMETEEPQIFYNASPSTLS
modifications: PEGylated
Question: Which results are given for B1?
Answer: signatures related to invasion and tumor progression (EMT, myogenesis, angiogenesis, TGFβ signaling), stromal activation, serrated tumorigenesis and the CMS4 subtype ([1]; GSEA of Quant-seq, treated versus Veh): decrease; IFN and allograft rejection signatures ([1]; GSEA of RNAseq, endogenous tumors): enrichment; stromal HA accumulation ([1]; PEGPH20 0.0375 mg/kg twice a week, 3 weeks, IHC): eliminated; cancer incidence in the small intestine ([1]; PEGPH20 0.0375 mg/kg, 3 weeks): lower; invasive carcinomas ([1]; PEGPH20 0.0375 mg/kg, 3 weeks): reduced; sessile serrated lesions (SSL) ([1]; PEGPH20 0.0375 mg/kg, 3 weeks): fewer; collagen deposition and αSMA expression ([1]; PEGPH20 0.0375 mg/kg, 3 weeks, Masson's trichrome, IHC): reduced; intestinal and colon tumors ([1]; figure legend title, FIGS. 16A-16E): reduces; colon tumorigenesis ([1]; proximal colon tumors): reduced; average tumor size [1, 3]: significant reduction; tumor load [1, 3]: significant reduction; tumor number [1, 3]: significant reduction; Anxa10 expression [2]: reduced; Clu levels [2]: without changes
